Experimental findings from PMC3844103 (Biochemistry, 2013) are described below.

This test deals with T1, C-terminal SH2 (cSH2) domain of PLC-γ1 (rat, UniProt P10686 664-766).
T1 sequence (looked up): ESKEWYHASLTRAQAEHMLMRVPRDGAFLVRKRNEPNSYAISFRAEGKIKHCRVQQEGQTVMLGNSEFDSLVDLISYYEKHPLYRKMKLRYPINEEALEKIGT
The experiment in a line: crystal structure.

Non-standard residues stand in square brackets, D forms with d. pY = N[C@@H](Cc1ccc(OP(=O)(O)O)cc1)C(=O)O

B1: pTyr783 peptide of PLC-γ1 (peptide)
peptide: Ac-DYGALYEGRNPGF[pY]VEAN-NH2
SMILES: CC(=O)N[C@@H](CC(=O)O)C(=O)N[C@@H](Cc1ccc(O)cc1)C(=O)NCC(=O)N[C@@H](C)C(=O)N[C@@H](CC(C)C)C(=O)N[C@@H](Cc1ccc(O)cc1)C(=O)N[C@@H](CCC(=O)O)C(=O)NCC(=O)N[C@@H](CCCNC(=N)N)C(=O)N[C@@H](CC(N)=O)C(=O)N1CCC[C@H]1C(=O)NCC(=O)N[C@@H](Cc1ccccc1)C(=O)N[C@@H](Cc1ccc(OP(=O)(O)O)cc1)C(=O)N[C@H](C(=O)N[C@@H](CCC(=O)O)C(=O)N[C@@H](C)C(=O)N[C@@H](CC(N)=O)C(N)=O)C(C)C
On to B1, for which the binding result is listed as “binds”.
